Experiment [1] concerns the target 1GS mGRFT (GRFT with GS inserted between Ser16 and Gly17) (Griffithsia sp.) (UniProt P84801). In words: AUC.
Experiment [2] has as its target HIV-1 glycoprotein gp120 (HIV-1) (UniProt P04578). As to the kind of experiment: ITC. A general note: In ITC the heat of successive injections is recorded.

This note sets out measurements from PMC3399781.

One may read the Kd as a measure of binding affinity in units of concentration. High values mean lower affinity, low ones higher affinity. As to “1GS mGRFT (GRFT with GS inserted between Ser16 and Gly17) (from UniProt P84801 1-121) (natural protein)”, the Kd in experiment [1] came out at 120 µM.

For the substance “1GS-S mGRFT (L2S variant of 1GS) (from UniProt P84801 1-121) (natural protein)”, in experiment [2], the Kd came to 0.112 µM and the dH was -35.5 kcal/mol.
